According to doi:10.1101/2024.05.01.590489 (bioRxiv, 2024):

B1: Fab3-4 (Fab, V domains shown)
VH: AVESGGGLVKPGGPLRLSCAASGFSLSDNYMTWIRQAPGKGLEWVSYISSSGSFINYADSVKGRFTISRDNAKNSLYLQMNSLRAEDTAVYYCARVLSSGGLTTSWRALWYFDVWGRGTLVTVS
VL: TVVTQEPSFSVSPGGTVTLTCGLTSGSVSTSYYPSWYQQTPGQTPRTLIYSTNIRSSGVPDRFSGSILGNKAALTITGAQADDECDYYCVLYMGSGIWVFGGGTKLTVL
B2: Fab1-7 (Fab, V domains shown)
VH: QVQLQESGPGLVKPSETLSLTCTVSGDSIRSYYWSWIRQPPGKGLEWIGHIYYSGSTNYKPSLKSRATILVDTSKNQFSLKLRSVTAADTAVYYCAREMTGVAGRGWDHWGQGTLVTVSS
VL: ALTQPPSASGTPGQRVTISCSGSSSNIGSNTVNWYQQLPGTAPKLLIFINNQRPSGVPDRFSGSKSGTSASLAISGLQSEDEADYYCTTWDGSLNGYVFGTRTEVTVL
B3: Fab2-2 (Fab, V domains shown)
VH: QVQLQESGPGLVKPSVTLSLTCTVSGDSISTYYWSWVRQPPGKGLEWIGYIYYSGNTNYNPSLKSRVTMSVDTSKNQFSLKLNSVTAADTAVYYCARTHHDYGDYRPSYYFDYWGQGTLVTVSS
VL: QSALTQPASVSGSPGQSITISCTGTSSDVGAYDYVSWYQQHPGKAPKLMIYDVSNRPSSGVSNRFSGSKSGNTASLTISGLQAEDEADYYCSSYTSSSTVILGGGTKLTVL
B4: Fab2-4 (Fab, V domains shown)
VH: EVQLLESGGGLVHPGGSLRLSCAASGFPFSNFAMSWVRQAPGKGLEWVSTISGSSGSTYYADSVRGRFTISRDYSKNTVYLEMNSLRADDTAIYYCAKDRMITFGEVIVKHYDAFEIWGQGTRVAV
VL: DIQMTQSPSSLSASVGDRVTITCRASQTISTNVNWYQQKPGKAPKLLIYAASSLQSGVPSRFSGSGSGTDFTLTISSLQPEDFATFYCQQSYSAPLTFGEGTKV
B5: Fab1-5 (Fab, V domains shown)
VH: EVQLVESGGGLVKPGGSLRLSCAASGFMFSSYSMNWVRQAPGKGLEWVSSISRSDSYIDYADSVKGRFTISRDTAMNVLYLQMDSLRAEDTGVYYCARTHVFNMFREVINDDYYGMDVWGQGTTVTVS
VL: ALTQPASVSGSPGQSITISCTGTSSDFGIYNSVSWYQHHPGKAPKLMIFGVSNRPSGVSNRFSGSKSGNTASLSISGLQAEDEADYYCSSFTARSTVVFGGGTKLTVL
B6: Fab3-5 (Fab, V domains shown)
VH: EVQLVESGGGLVQPGGSLRLSCAASGFTFSNYGMNWVRQAPGKGLEWVSYISSGGTIYYADSVKGRFTISRDNAKNSVYLQMNSLRAEDTAVYYCARDPAYCGDDCYTIPAHYFDYWGQGTPVTVS
VL: DIQMTQSPSSLSASVGDRVTITCRTSQSISRYLNWYQQKPGKAPKLLIYAASSLQSGVPSRFTGSGSGTDFTLTISSLQPEDFATYYCQQSYSIPPVTFGQGTRVD
B7: Fab1-1 (Fab, V domains shown)
VH: EVQLVESGGGLVKPGGSLRLSCAASGVPFSDAWMNWVRQAPGKGLEWVGRIKSKKDGGTADYAAPVKGRFSISRDDSKKMLYLHMNSLKTEDTAVYYCTTEPSGYCSNGLCYTGNYWGQGTLVTVSS
VL: QPVLTQSSSASASLGSSVKLTCTLSSGHITYIIAWHQQQPGKAPRYLMKLEDSGSYNKGSGVPDRFSGSSSGADRYLTISNLQFEDEADYYCETWDSYTRVFGGGTKLT
B8: Fab3-1 (Fab, V domains shown)
VH: EVQLLESGGGLVQPGGSLRLSCEASGFTFSRYPMNWVRQAPGKGLEWVSHISASGGTTYYADTVKGRFSISRDNSKNTLYLEMNSLRAEDTAIYFCAKDYPPDEVTMIVVGMPYFDSWGLGTLVSVSS
VL: not shown
B9: Fab2-7 (Fab, V domains shown)
VH: EVQLLESGGGLVQPGGSLRLSCAASGFTFSTYAMNWVRQAPGKGLEWVAGISASGGSAYYVDSVEGRFTISRDNSNNMLYLQMNSLRAEDTAVYYCAKAVYAITMVRGSITTNYYHYYAMDVWGQGTTVTV
VL: EIVLTQSPGTLSLSPGERATLSCRASQGVSSNYLAWYQQKPGQAPRLLIYDASNRATGIPDRFSGSGSGTDFTLTISRLEPEDFAVYYCQQYGSSPPLTFGGGTKVQI
B10: Fab2-1 (Fab, V domains shown)
VH: EVQLLESGGGLVQPGKSLRLSCAASGFSFSNYAMSWVRQAPGKGLEWVSGISGSGGSTNYAESVRGRFTISRDNSKNTLYLEMNSLRVEDTAVYYCAKGMSYYDRSGYFWAKYHYGMDVWGQGITVTVSS
VL: not shown
B11: Fab1-2 (Fab, V domains shown)
VH: EVQLVESGGGLVQPGGSLRLSCAASGFIFSNYWMSWVRQAPGKGPEWVANIKQDGSANHYVDSVKGRFTISRDNAKNSLYLQMNSLRAEDTAVYYCAREAYQDWNYDYWGQGTLVTVSS
VL: DIQMTQSPSSLSASVGDRVTVTCRASEFISRYLNWYQQKPGKAPKVLIYAASSLQSGVPSRFSGSGSGTDFTLTISSLQPEDFATYYCQQSYSTPYTFGQGTKLEIK
B12: Fab1-4 (Fab, V domains shown)
VH: QVQVVESGAEVKKPGASVKVSCKASGYAFTTYYMHWVRQAPGQGLEWMGLINPSGDSITYAQRFQGRVTMTKDTSTSTVYMELSSLRSEDTAIYYCARDPNVAFYYGSGNYYKDNAMDVWGQGTTVTVSS
VL: not shown
B13: Fab1-3 (Fab, V domains shown)
VH: VQLVESGGGVVQPGRSLRLSCAASGFSFSSFVFHWVRQAPGKGLEWVAVISYDGSNKNYADSVKGRFTISRDNSKNTLFLQMNSLSADDTAVYYCARGAICSSTTCYLGDSYYFYGMDVWGQGTTVTVSS
VL: LTQPPSVSGAPGQRVTISCTGSRSNIGAGYDVHWYQQLPGTAPKLLIYGNSNRPSGVPDRFSGSKSGTSASLAITGLQTDDEADYYCQSYDSSLSGSVFGGGTKLTVL
B14: Fab2-3 (Fab, V domains shown)
VH: VQLVESGGGLVKPGGSLRLSCATSGFTFSDYYMSWIRQAPGKGLEWVSYISSSGSTIYYADSVKGRFTMSRDNAKNSLFLRMNSLRAEDTAVYYCARDQITVDREVIRAHYYYGMDVWGQGTTVTVS
VL: DIQMTQSPSSVSASVGDRVTITCRASQGINSYLAWYQQKPGKAPKLLIYAASSLESGVPSRFSGSGSGTDFTLTISSLQPEDFATYYCQQANSFPLTFGGGTKVDI
B15: Fab2-5 (Fab, V domains shown)
VH: EVQLVESGGGLVKPGGSPRLSCAASGFNFGSYSMNWVRQAPGKGLEWVSSISSSSSYIYYADSVKGRFTISRDNAKHSLYLQVNSLRAEDTAVYYCARDPTTYGYNSAWDKKGWYFDLWGRGTLLTVS
VL: VLTQPPSVSAAPGQMVTISCSGSSSNIGNDYISWYQQLPGTAPKLLIYDNNERPSGIPDRFSGSKSGTSATLGITGVQTGDEADYYCGTWDSSLSAWVFGEGTKLTVV
B16: Fab3-7 (Fab, V domains shown)
VH: QVQLQESGPGLVKPSETLSLTCTVSGGSISNYYWNWIRQPPGKGLEWIGYVHYSGSTNYNPSLKSRVSVSVDTSKNQFSLNLGSVTAADTAVYYCARQSRSYYNEVITDPKYNFDYWGQGTLVTVSS
VL: QSALTQPASVSGSPGQSITISCTGTSSDVGGYDYVSWYQQHPGKAPKLMIYDVSNRPSGVSNRFSGSKSGNTASLTISGLQAEDEADYYCSSYTSISTLVFGGGTKLTVL
B17: Fab2-6 (Fab, V domains shown)
VH: VQLLESGGALVQPGGSLRLSCAASGFSFSNYAMSWVRQAPGKGLEWVSTISASGGTTYFADSVKGHFTISRDNSKNTLYLQMDSLRAEDTAVYYCAKDPNYYDLSGYFLGGYYFDYWGQGTLVTVSS
VL: EIVLTQSPGTLSLSPGERATLSCRASQSVRSSYLAWYQQKPGQAPRLLIYGASSRATDIPDRFSGSGSGTDFTLTISRLEPEDFAVYYCQQYGTSPAFGGGTKV
B18: Fab3-3 (Fab, V domains shown)
VH: QVQLQESGPGLVKSSETLSLTCTVSGESISSSSHYWGWIRQPPGKGLEFLGNVYYLGSTYYNPSLESRVTILLDTSKNQFSLKVNSVTVADTAVYYCARHGAGSYSGLFFDYWGQGARVIVSS
VL: DIQMTQSPSFVSASVGDRVNITCRASQGINSWLAWYQQKPGKAPKLLIYSASSLQSGVPSRFSGSGSGTDFTLTISTLQPEDFATYYCQQANSFPYTFGQGTKVD
B19: Fab1-6 (Fab, V domains shown)
VH: QVQLVESGAEVKQPGASVKVSCKASGYIFTSHNIHWVRKAPGQGLEWMGKINPSGGDANYAQKFQGRVVMTRDTSTNTVYVQLRSLRFEDTAVYYCARVHDFWSGYHRALDIWGQGTMVIVSS
VL: VLTQPPSASGTPGQTVTISCSGSSSNVGSHSVNWYQHLPGTAPKLLIYSNHRRPSGVPDRFSGSKSDTSASLAISGIQSEDEADYYCATWDGRLNVLFGGGTKLTVL
B20: Fab3-2 (Fab, V domains shown)
VH: EVQLLESGGGLVQPGGSLRLSCAASGFTFSNYAMSWVRQAPGKGLEWVSLISGSGGSIDYADSVKGRFTISRDNSKNTLYLQMDSLRAEDTAVYYCSKDPIYYDLSGYYAGRIYYFDYWGQGTLVTVSS
VL: EIVMTQSPATLSVSPGDTATLSCRASHSVSRDLAWYQQKPGQAPRLLIYDASTRATGIPARFSGSGSGTEFTLTISSLQSEDFAVYYCQQYINWVTFGPGTKVDIE
B21: Fab3-6 (Fab, V domains shown)
VH: EVQLVESGGGLVQPGGSLRLSCSASGFHFSSYEMNWVRQAPGKGLEWVSYISSSGTYIDYADSVKGRFTISRDNPANSLYLQMYSLRAEDTAVYYCARRLWFGELPYSYYYGMDVWGQGTTVTVSS
VL: ALTQPASVSGSPGQSITISCTGTSSDIGGYNYVSWYQQHPGKAPELLIFDVSNRPSGVSNRFSGSKSGNTASLTISGLQAEDEADYHCCSYTRTSTVIFGGGTKLTVL

Molecular target: AAV9 capsid (adeno-associated virus serotype 9 (AAV9), UniProt Q6JC40)
Assay: cryo-EM structure

Binder | binding result | stoichiometry N [Fabs per capsid]
B1 | binds | –
B2 | binds | –
B3 | binds | –
B4 | binds | –
B5 | binds | –
B6 | binds | –
B7 | binds | –
B8 | binds | –
B9 | – | ≤ 60
B10 | binds | –
B11 | binds | –
B12 | binds | –
B13 | binds | –
B14 | binds | –
B15 | binds | –
B16 | binds | –
B17 | binds | –
B18 | binds | –
B19 | – | ≤ 24
B20 | binds | –
B21 | binds | –
